{"source": "paper PMC2811759", "about": "(Biochemistry, 2010)", "binders": {"B1": {"name": "Rad23B (natural protein, human, UniProt P54727 1-409, looked up)", "chain": "MQVTLKTLQQQTFKIDIDPEETVKALKEKIESEKGKDAFPVAGQKLIYAGKILNDDTALKEYKIDEKNFVVVMVTKPKAVSTPAPATTQQSAPASTTAVTSSTTTTVAQAPTPVPALAPTSTPASITPASATASSEPAPASAAKQEKPAEKPAETPVATSPTATDSTSGDSSRSNLFEDATSALVTGQSYENMVTEIMSMGYEREQVIAALRASFNNPDRAVEYLLMGIPGDRESQAVVDPPQAASTGAPQSSAVAAAAATTTATTTTTSSGGHPLEFLRNQPQFQQMRQIIQQNPSLLPALLQQIGRENPQLLQQISQHQEHFIQMLNEPVQEAGGQGGGGGGGSGGIAEAGSGHMNYIQVTPQEKEAIERLKALGFPEGLVIQAYFACEKNENLAANFLLQQNFDED"}}, "target": "T1, Xeroderma Pigmentosum group C (XPC) (human, UniProt Q01831 1-940)", "T1 sequence (looked up)": "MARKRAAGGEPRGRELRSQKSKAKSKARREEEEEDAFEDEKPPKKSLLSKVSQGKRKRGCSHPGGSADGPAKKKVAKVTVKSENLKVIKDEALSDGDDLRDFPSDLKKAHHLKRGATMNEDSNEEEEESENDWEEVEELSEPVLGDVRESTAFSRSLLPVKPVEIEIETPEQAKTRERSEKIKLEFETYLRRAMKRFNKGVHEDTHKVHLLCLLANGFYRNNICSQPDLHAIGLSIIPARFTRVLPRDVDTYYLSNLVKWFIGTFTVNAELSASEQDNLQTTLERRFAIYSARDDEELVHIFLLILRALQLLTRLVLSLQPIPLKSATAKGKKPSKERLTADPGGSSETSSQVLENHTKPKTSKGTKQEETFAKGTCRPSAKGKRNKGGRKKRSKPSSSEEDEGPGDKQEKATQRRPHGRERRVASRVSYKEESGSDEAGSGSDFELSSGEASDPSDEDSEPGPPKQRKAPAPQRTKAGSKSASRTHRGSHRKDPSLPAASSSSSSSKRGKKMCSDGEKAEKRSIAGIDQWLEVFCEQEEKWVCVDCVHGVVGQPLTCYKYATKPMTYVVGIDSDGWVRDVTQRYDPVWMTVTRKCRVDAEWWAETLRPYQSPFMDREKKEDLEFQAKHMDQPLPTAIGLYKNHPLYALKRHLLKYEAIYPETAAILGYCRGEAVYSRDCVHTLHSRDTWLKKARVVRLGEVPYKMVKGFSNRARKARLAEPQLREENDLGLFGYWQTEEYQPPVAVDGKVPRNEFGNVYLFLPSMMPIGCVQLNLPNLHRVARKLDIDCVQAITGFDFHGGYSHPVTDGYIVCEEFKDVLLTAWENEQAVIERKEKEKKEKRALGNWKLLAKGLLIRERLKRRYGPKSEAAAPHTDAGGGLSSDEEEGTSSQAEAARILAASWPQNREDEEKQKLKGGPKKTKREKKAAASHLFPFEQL", "assay": "co-IP", "data": [{"binder": "B1", "values": [{"measurement": "binding result", "value": "binds"}]}]}
